B1: TPR t1 (parent)
chain: GACCAAUCUGCCCUCAGAGCUCGAGAACAUCUUCGGAUGCAGAGGAGGCAGGCUUCGGUGGCGCGAUAGCGCCAACGUCCUCAACCUCCAAUGCAUCCCACCACAUGAUGAUGCCUGAAGAGCCUUGGUUUUUUG

Variants of: B1
Test: polymerase ribozyme fitness, log enrichment relative to wild type (log ratio); higher = more active; in vitro selection for triplet polymerase activity
Summary of the method: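 Each subunit of a heterodimeric triplet polymerase ribozyme was mutagenized into a library by PCR, transcribed, and subjected to one round of in vitro selection, run in triplicate. Libraries were annealed with a biotinylated primer, the partner subunit and triplets, incubated frozen at −7 °C, and extended constructs were gel-excised, captured on streptavidin beads and recovered by RT-PCR. Input and output libraries were sequenced on Illumina, keeping genotypes with ≥10 input reads and ≥1 read per output. Fitness is log base 2 of genotype enrichment divided by wild-type enrichment, from inverse-variance-weighted replicate averages.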

Variant | polymerase ribozyme fitness (log ratio)
C20G G117C | -5.4
G19U C49U C53U G60U C123U | -5.84
U21A A37U C72U | -0.453
C20A U87G U92G | -4.3
C20U A43G U112C | -0.81
G19U G71A A118G | -6.34
G19C G69C C86G A121G | -3.28
U21G A26U C72A C104A G110U U125G | -7.09
C20A G113C | -4.5
C20U C123A | -0.867
C20U A37U C72G C101A | -2.76
U21G C64U G77A G93U | -3.27
C20U C28U G45C | -4.64
C20U G52A C70U G120A | -1.85
C20U C40G | -2.17
G19C G39A C53A C76U | -3.34
C20U A43G C62U U112C | -1.04
U21A G23A A121C | -5.61
C20U G61A C88A | -1.39
C20U A91U | -2.81
U21A C34A C82A C123U U133G | -2.66
U21A C22A C40U C73U C101A U133G | -5.39
C20A C22G G113A U132A | -4.93
C20G A43G G48A C72G U106A C123A U129A | -6.54

Variant | polymerase ribozyme fitness (log ratio)
C20A U92G G110U | -5.28
C20G A118U | -3.53
C20U A43G C62U U78G U87A C89G | -5.31
C20U C22A G23U G44U G63U A66C C88G A103C U109A | -6.53
U21A A43U G60A C115U | -2.81
U21G C40A U92A | -2.98
U21C U55A U78A U131A | -0.459
G19A G39U G61U G120C U132A | -1.96
G19A A41U C62U C94U | -3.23
U21G C70U G93A | -3.75
A18U U54A A83U | -4.98
G19U G61A | -3.31
C20A G42C A43G | -3.32
C20U C124G | 0.389
C20U G61U | -1.41
G19U A43U G122A C124A | -2.23
U21C U78C U96C C114A | -1.81
U21A G36A | -0.614
C20A G47U C72A A111C | -3.96
U21A G42C | -1.94
U21G G48C G63A | -4.12
G19C C31G C72G G110U U131A | -7.2
C20U U32C U106A | -2.46
U21A G45A G58A G60U A100U C101G | -2.68

Variant | polymerase ribozyme fitness (log ratio)
U21C C124U | 1.84
C20A A91C | -3.55
C20A C70A C123A U130A | -4.36
C20A C28U C62U C101A G113A | -6.69
G19U G61A C82G C124A | -2.1
G19U C72G U78A | -5.06
C20U G117U | -3.53
G19A C114A A121U | -1.17
C20U C28A G60A A121C | -2.44
C20U G52U C53U C56A C123A | -3.62
G19C C88U | -2.6
U21C U30G C31A G36C C124A | -4.94
U21A A66U U112G | -0.949
G19C C20A C56U G71A A95U C102U U116C C123U U126G | -5.6
C20G G69A G113A | -5.37
C20U C22G A50C C97U U106A A121C | -4.3
G19U U55G U87G A95C U112C C114A | 0.393
C20U C94G C101U U106A | -5.04
G19A G44U C124A | -1.74
C20G A50C C80U G93A G120C U125G | -6.66
C20U C76A | -2.08
C20U A95G C104A U109C C114U C124A | -3.03
G19A U106A | -2.97
C20A U32A G93C | -4.21

Variant | polymerase ribozyme fitness (log ratio)
C20G G51A G61A C85G A121U | -7.66
C20A C31U G44C A68C G113C U116C G135C | -5.66
G19U G122U C123A U129A | -4.23
U21A U81A C101A G113C | -4.64
U21C G57A C72U G77C U96A A121U U125A | -3.06
G19C A41U U130C | -2.43
U21C C56A G58A G113C U132A | -2.29
G19U C86U | -2.9
C20G U112C | -2.48
U21G C56U U78G C86U A121G | -0.445
U21A U87A | 0.177
U21A U87G | -0.0526
G19A C94G | -3.41
U21A C123G G128C | -1.09
G19U G120U | -2.46
U21A C40A A46U A90U G93U | -2.45
G19C G61A U81G A84G A91G A111G | -4.6
U21C U59G C101A | -1.38
C20U G63C C94A G120C | -2.23
C20G C62U G113C | -1.25
C20A A43C C94U | -4.19
U21A A37U C94U G120A | 0.736
G19C A24G A26U C34U A43C G61U C123G | -7.57
C20A U32G G44A C73A C114G U132A | -5.73

Variant | polymerase ribozyme fitness (log ratio)
C20A G69U | -1.94
C20A G69A | -5.6
U21A A43U C72A | -2.36
C20U C40G A46C G60U A75C | -4.1
U21G A37G A41U U78C G113U | -2.05
G19A C40U C53A G58C G93U | -4.4
G19A A29G | -3.47
C20A C72G U131G | -3.6
C20G G63A | -6.16
C20G G63C | -4.72
C20U C72U C82U C115A | -1.91
C20G G48A G60U U96A A105U G110U A118U | -6.72
G19U G58C | -4.22
C20U G47U C82G | -4.12
U21A G23U G42C A68G C94A U112A | -6.75
C20A U32A | -3.55
C20G G47A G57U | -5.83
U21A A43U G61U C102A | -4.93
C20A G127A | -3.23
U21A G44A C62U | -1.4
C20U G63U G93A C114G | -2.6
G19U A121U | 0.0875
U21A C76U A91C | -2.35
U21A U92A | -3.73

Variant | polymerase ribozyme fitness (log ratio)
C20A U112C U116A | -3.11
C20A C56U U96G | -3.51
C20U C62A C104U A119U C123A G128U | -2.83
C20G G52A A111U | -3.23
C20G G45U G61A | -4.19
C20A C53U U87A | -3.21
U21G A84C | -2.02
C20U G36U C70U G135U | -3.95
C20G C123G | -2.95
C20U U96G | -1.9
U21G A121U | 0.0323
C20G A43U | -3.89
U21C G61C | -2.11
G19A C102A | -5.35
U21C C56U C62A G63A A90C C101A U112C | -6.74
G19U U87A | -3.34
G19U G51A G60A G77C G113U | -6.6
G19U C79U C82U A95C C101A | -4.63
C20A C49G G93A | -3.77
C20U G23A G61A U112A G113A G122C U130C | -6.32
G19A A43U | -2.7
C20G G60A G120C | -4.56
G19C C70U U112A G120A U130C | -2.23
C20G C97A U116C C123G | -5.78

Variant | polymerase ribozyme fitness (log ratio)
C20A G52C U125A | -3.04
G19U U55G C70U U87G A95C U112C C114A | -0.702
C20U C22G G47A C72U C73U C101G A119G G122U | -6.75
C20G C56U A84G A111C C115G A121C U132A | -3.92
G19A C70U C76G U81C | -4.57
U21A G52A C89U | -1.17
C20G G69U C99U | -5.06
U21A C124G | 0.373
U21C A95C G107C U109A G113A C124U | -7.51
G19A A83G C114G G122C | -4.41
A18U U116C G117A | -4.83
G19U G110A | -4.35
G19C C22U A46C G61U | -5.14
C20U A43U | -2.08
C20A G63A | -3.49
U21C C70G C94U A111G G128A U131A | -3.27
C20A C86G C114U C115U | -5.24
C20A A95G U112A G120U | -1.91
C20U G42A | -2.49
G19U C56U C89G | -3.6
C20U G51U G71A | -6.53
G19U A29G | -4.96
C20U A26G G60C A90C | -4.37
